According to the domain aggregation screens of Martell et al. (2025):

Test: soluble fraction after stress (log2 fold change); higher = more stays soluble; pooled small domains, quantitative proteomics
Conditions: stress: pH 4
Summary of the method: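 Aggregation propensity is read out as the fold change in how much of each domain remains soluble after acid stress. The custom small-domain libraries were pooled, held at pH 4 and analysed with high-throughput quantitative proteomics. On the log2 scale used, higher values mean more of the domain stayed soluble.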

| Sequence | soluble fraction (log2) |
| --- | --- |
| HMNGPTPEEKLAVVNAEFVRQYGDEYEELELEGEELEEYYQKALNKEDFEYDIPHLPGWDEP | -0.905 |
| HMNHHEIIMKNIDTLLKEKNISISKLEKSLGISNGYISRLRNGKYNFSLDLLLKLAKKFKISIDYLLTDFD | -0.119 |
| HMNHNPSIARKISREIKRGAPPESLLNLARTVNDSYYRSLSFVSIAYSIKGKKSKELFEEAISNLT | -0.0826 |
| HMNHTIEENDRVLILDPRGKKYLITVTNRVFHTNLGKLDISELIGKNYGDKIKSHMGKNFSILKPNLIDYI | 0.053 |
| HMNIAEIGQKVAQQRVALGISQERLAKLSDLSRSTIHHLEHGTLHEIGAAKLFKLLSLLDIQLK | 0.159 |
| HMNIDQAFISDLERMIMPDISKYELMDIISIMENSGFTIKVEGTGNEVRQVIKPGSKLKKGQKIKIKL | -1.79 |
| HMNIEIIEVQEESTPSEISKIISTESTKIIEDLLNLGVMASLETPLKNQDIEKLLEGYGYIVDIKP | -1.84 |
| HMNIGEKIKKIRTQQNKSTYELADIINKNGFKISQSAISKIENGRKKIDIETLEEIAKALDIEVDLLIT | -0.282 |
| HMNIGIVSLAAVPMRKEPSDRAEMVNQILFGETFDVLEEQEKWTLVQLHHDAYQGWIDRKQWDYASGIAD | -1.3 |
| HMNIIHNPSKNFIESDLNDLKEGMEIEHKKFGYGLIKSIDKTQNHQKAVVNFKLVGEKTLLLSFARLRIV | -0.519 |
| HMNIILFLDELHRLLSDLPPEERNQAIKYYEDYFEDAGPENEQAILKELGSPQELANQIKATT | -1.36 |
| HMNIIMLGEFIKEQRIKRKMTQEYLASELGISRPTYSQIELGTRELTIPEARKMAAIFNISLEDFLAEKE | 0.149 |
| HMNIMNINQALNVLNLKGTVSKEELAKAYKKMAIKYHPDRNPTGVEMMKVINSAYEFLKGLNLEEIKH | 0.252 |
| HMNINLNVGKRLKSIRQNKELSLDEVSNLTNVSKPALAQIERGASSPTINTLWKISKGLKVPLSYFLQE | ≥ 0.43 |
| HMNINVRNTGIKAVENNIINLSSDQRTFTWASNDRKLITVPFDENPYSALAAWFKTDEGIEVYQTIEKKL | -0.294 |
| HMNIWNEWAFKKWIESDEYTGPDMTDFGHRTLVDEEFSKQYKEQMSLFKERVLTDDEFSAKYGDL | -2.07 |
| HMNKEDIASNEKLLGLLNHMSKVLKDIDFIKDDRPMIVRKINHIFKKATLSEEEINILRGVLSAIENHS | -0.104 |
| HMNKEKLLEMFESMSIIIVQSLEEKEQTEDRIETELFNEAKTPRYSTLTKQDIQSVIRNILITVGV | -0.959 |
| HMNKELVVPDLTDMRVKDAEFEAHQVGMRTEIVDSVYVRRLKRGYVYKQNPVPGSKVKKGRRIALTINAV | 0.1 |
| HMNKETYIDALERKLWDRLDPDQLRDIISYYKDYFAMEAAKGISEEETIRKLGDPALLAKSILAAE | -0.145 |
| HMNKEVDLPNFVGMTKENAQAQADKIKIKLEFEEEYSSDVEEGKIISQNPEYKENYKIKEKSTVSLKI | 0.0516 |
| HMNKFKVNERVRVIATGEIGIVKGREILPVEGSKRVNIEYLVKVGNGFSNWKAFSKKELEPVR | ≥ 0.43 |
| HMNKFRVGDEVEIVKLDKTIQHFGGEEVLSPVGTKTYITYVDVTGKEIEIDKDIYSYHADDLTLV | -1.76 |
| HMNKKLEMKIEQLDLSVRLFNSLKRSGIYTVAQIIKLTEEDVMRFRSLGRKSFKELKEKLSEHGLEFE | -1.02 |
| HMNKLKALREEQGLSMMEIAKQLNMPYTTYVNYEKGTREPNSEMLIKFSKFFNVTIDYLIGNSEQKN | -0.129 |

| Sequence | soluble fraction (log2) |
| --- | --- |
| HMNKNLQLMINEIKKGLASEDIETRKKSVLMLSRIDAPEIIQVLEPLKDDSSEEIRKISSKIISVLSKKYT | 0.332 |
| HMNKNQGVTTTNLNFRKSASTSSLVLYTIPKNTTLDILDKLPSGWYKVKYKGLTGYVSGSYV | 0.22 |
| HMNKPTFNIFNNRLTFPFKGDITIYSLDGKRVFSAYNESSVNLSFLNRGSYISEFNNSRSVLIL | -0.948 |
| HMNKRKQRINDLMDLIREQPALSIKNLAEMLNVSEMTIRRDMAYLKSNNLLNRAHGMNFLNS | 0.132 |
| HMNKSEFLNELEKRIRVLEKNEIKDILAEYSQHIDMRMGSGLSEAEAIKDFGDMDDLAAEILEAY | -0.436 |
| HMNKVDEEKNAELVSTIQNKFSDVSAATKKKVKAFMAEHDIPNFKNADEIPTANLEAIVAMLNED | 0.22 |
| HMNKYNNIEDLKEEDFENISEKYQVPVSFVKSKLDDLINWHEKNPQKNHYKNYLSALRDWVKRDSLKIKL | 0.0178 |
| HMNLDELGNRIREQRIKQRLKQQDIANALMLSAQAVSKWERGENAPDISVLPDLVKILGVSVDWLLTGP | -1.15 |
| HMNLDPHVVGHRLRDLRTRRDLTLADVAAETDISVSTLSRLESGSRRATLELLVPLARTYRVTLDELVDA | -0.353 |
| HMNLDPIKRKSEILSLFESHKNVKFNEIFFEKVNKEFTVLTFLIILELVKDNIIDFSQTQEGLIEFFTR | 0.204 |
| HMNLDVPGIIKRAKQALNLKRDSELAEFLGVSRATVTNWAARNSIDFRLLLDKLGNTVDYNWLLLGKGNPK | -0.188 |
| HMNLDYKQFQVFNNIETLNTFTNLLSDNKIDFEVENNSKIFDPSFANNDFEKEYIVKIHPNDFEKVY | -1.32 |
| HMNLEIGAIIKSLRAKHKYTQEQLSAFLGVTPQAVSRWEAGNGYPDIELLPAIARFFEVSTDELLGL | -1.32 |
| HMNLGDLYVIMEIAGQRDDVSARLMNREGQTFLVKTGTKLKSGDVVKEITPTYIKTDHDGEEAFLYF | -1.17 |
| HMNLGETIYNLRKEKKLSQGDLAEQLSVSRQSVSKWENNSAVPDLDKLVKLSTIFGVSLDELVKG | 0.409 |
| HMNLGLTGDPSVLYSILLQRGDSSRADLQRQTGWSLSKTTLVLNQLLAQKLIVQVGAGRSTQYRVIN | -0.196 |
| HMNLGNLAYESKVTKQVLNMIRPLHPEYSSDDITRAVKEILSEEGSRQRRVDEIARGALDVLMGNPR | ≥ 0.43 |
| HMNLLQAHLLRLESAALLAEVREVDRQLSRWLHPLTPQSDVAIIDERNWEAAVARLTELGVHIEEGRW | -1.67 |
| HMNLNIGNNIKNIRKSKNMTQTDFAELMGLSRSYIGDLENNRSNPSIKTLEAIARALDVPIVALIN | -0.726 |
| HMNLSSETLSEMEARIGQMGVVELQDRRAYLLQEQEGTQNPSRLKEIADELSAIQKALVALV | -0.401 |
| HMNLTEIGQRIRDRREELGLSQDRLAKLGGLPRVTINQLETGSIGDLGVSKLLNLLDLLGLTLDA | -0.614 |
| HMNLTLMDALKAAGLPVDGINLSMVNKMMEEQMPIDKTSLNQMYQLVQDNKDINVTTLVELKRLG | -0.393 |
| HMNLTSNDAYSRILNAIITSELRPGDTVTEIQLAQKFGFGRTPVREAIMRLENEGFIVSAERKKRVYIL | -0.815 |
| HMNLTSSDIQKILSYALLADNSITLNSIEESMASLKLKKMSAEQLIELLEVSSMVLRNTNNSWSIL | -1.32 |
| HMNMENIADKIGKIYESLPEDLKLMIKYRDIDDLTYDEIAVKADLPVGTVRSRLHRAREQLLKELEKN | -0.0554 |
